Article PMC5906480, “Tau Antibody Structure Reveals a Molecular Switch Defining a Pathological Conformation of the Tau Protein” (Scientific Reports, 2018)

System: normal tau in the soluble tau fraction (S1) from non-transgenic littermates
Assay: Western and dot blot, non-transgenic littermate brain
Assay type: binding, mouse
Settings: C5.2 1 µg/mL overnight 4 °C, 24 weeks old non-tg mice
Excerpt: rTg4510, tTA and non-Tg littermate F1 mice were bred at Taconic, Denmark. Mice expressing the tTA activator transgenes were maintained on 129S6 background strain (Taconic) and mutant tau responder mice were maintained in the FVB/NCrl background strain (Taconic). Mice were screened by PCR using the following primer pairs [NT] and [NT] for the tTA activator transgene and [NT] and [NT] for the mutant tau responder transgene. rTg4510, tTA and non-Tg littermates were group-housed (5 animals/cage) and received water and food ad libitum (Brogaarden, Denmark) as well as environmental enrichment. The light/dark cycle was 12 hours; room temperature was 21 ± 2 °C and a relative humidity of 55% ± 5%. All animal experiments were performed in accordance with the European Communities Council Directive #86/609, the directives of the Danish National Committee on Animal Research Ethics, and Danish legislation on experimental animals (license no. 2014-15-0201-00339). Mice were euthanized by cervical dislocation. Brains were quickly removed, weighed and divided sagittally down the midline to yield two hemispheres. […] Tau and pTau levels were assessed in the samples using 1 μg/mL C5.2 overnight at 4 °C. A secondary fluorophore conjugated IgG antibody was used (IRDye 680 Goat anti-mouse, LICOR biosciences) and the signal was quantified using Odyssey CLx and Image studio software (LI-COR biosciences). […]

B1: C5.2: novel mouse monoclonal antibody that targets the pS396 tau epitope region (antibody, V domains shown)
VH: QVQLQQSDAELVKPGASVKISCKASGYTFTDRTIHWVKQRPEQGLEWIGYIYPGDDSTKYNDMFKAKATLTADKSSNTAYMQLNSLTSDDSAVYFCARRGTMDYWGQGTSVTVSS
VL: DVQMIQSPSSLSASLGDIVTMTCQASQDTSINLNWFQQKPGKAPKLLIYGASNLEDGVPSRFSGSRYGTDFTLTISSLEDEDMATYFCLQHTYLPFTFGSGTKLEIK
  Detection of normal tau (S1): not detected
